Results reported in US20140147868A1.
Positions of bridges follow the written chain, without caps; N, C: chain ends. No end group written: not given here.

B1: phagemid CS1-6p (phage-displayed disulfide cyclized 13 mer peptide) (peptide)
peptide: CSFRYLWDQDRCS
modifications: disulfide 1-12 (inferred); also: displayed on phage (phagemid)
B2: phagemid CS1-11p (phage-displayed disulfide cyclized 13 mer peptide) (peptide)
peptide: CSFRYQWDMFRCS
modifications: disulfide 1-12 (inferred); also: displayed on phage (phagemid)
B3: phagemid CS1-9p (phage-displayed disulfide cyclized 13 mer peptide) (peptide)
peptide: CSGLYPWDMFRCS
modifications: disulfide 1-12 (inferred); also: displayed on phage (phagemid)
B4: phagemid CS1-29p (phage-displayed disulfide cyclized 13 mer peptide) (peptide)
peptide: CSGLYPWDYFMCS
modifications: disulfide 1-12 (inferred); also: displayed on phage (phagemid)
B5: phagemid CS1-2p (phage-displayed disulfide cyclized 13 mer peptide) (peptide)
peptide: CSLFYLWDQDRCS
modifications: disulfide 1-12 (inferred); also: displayed on phage (phagemid), coat fusion not given here
B6: phagemid CS1-31p (phage-displayed disulfide cyclized 13 mer peptide) (peptide)
peptide: CSFFYSLCYCWCS
modifications: disulfide (positions not given here); also: four Cys, disulfide pairing not given here

Target: unrelated control antibody
Assay: phage ELISA, coated control mAb, 10^10 phagemid per well

Q: B1 was tested. Which ELISA (absorbance units) (absorbance units) did it give?
A: 0.203

Q: How did the ELISA (absorbance units) (absorbance units) turn out when B2 was run?
A: 0.242

Q: With B3 as the binder, how does the ELISA (absorbance units) (absorbance units) read?
A: 0.213

Q: How did the ELISA (absorbance units) (absorbance units) turn out when B4 was run?
A: 0.148

Q: B5 was tested. Which ELISA (absorbance units) (absorbance units) did it give?
A: 0.228

Q: For B6, which ELISA (absorbance units) (absorbance units) is on record?
A: 0.125

Target: unrelated control antibody
Assay: phage ELISA, coated control mAb, 10^8 phagemid per well

Q: Which ELISA (absorbance units) (absorbance units) does the source give for B1 here?
A: 0.173

Q: B2 was tested. Which ELISA (absorbance units) (absorbance units) did it give?
A: 0.252

Q: For B3, which ELISA (absorbance units) (absorbance units) is on record?
A: 0.209

Q: How did the ELISA (absorbance units) (absorbance units) turn out when B4 was run?
A: 0.125

Q: For B5, which ELISA (absorbance units) (absorbance units) is on record?
A: 0.188

Q: How did the ELISA (absorbance units) (absorbance units) turn out when B6 was run?
A: 0.116

Target: bovine serum albumin (bovine) (UniProt P02769)
Assay: phage ELISA, BSA only, 10^9 phagemid per well

Sequence of bovine serum albumin (bovine) (P02769 25-607 limits assumed): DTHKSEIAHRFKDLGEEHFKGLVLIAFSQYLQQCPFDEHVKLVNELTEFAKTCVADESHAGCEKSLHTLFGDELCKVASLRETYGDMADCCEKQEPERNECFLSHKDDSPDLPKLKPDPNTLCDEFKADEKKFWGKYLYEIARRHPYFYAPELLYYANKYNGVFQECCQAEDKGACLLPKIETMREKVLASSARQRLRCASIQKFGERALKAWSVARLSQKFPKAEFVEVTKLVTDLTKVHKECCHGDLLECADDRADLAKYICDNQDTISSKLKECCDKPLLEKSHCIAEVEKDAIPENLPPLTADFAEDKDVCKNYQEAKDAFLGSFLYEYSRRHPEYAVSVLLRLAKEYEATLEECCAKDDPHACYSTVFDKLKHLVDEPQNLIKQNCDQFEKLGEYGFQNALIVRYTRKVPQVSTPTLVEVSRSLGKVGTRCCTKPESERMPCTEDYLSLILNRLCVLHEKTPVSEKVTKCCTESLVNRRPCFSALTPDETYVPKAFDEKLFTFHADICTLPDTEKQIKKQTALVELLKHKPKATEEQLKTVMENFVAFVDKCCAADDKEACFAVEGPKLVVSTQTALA

Q: B1 was tested. Which ELISA (absorbance units) (absorbance units) did it give?
A: 0.27

Q: B2 was tested. Which ELISA (absorbance units) (absorbance units) did it give?
A: 0.278

Q: How did the ELISA (absorbance units) (absorbance units) turn out when B3 was run?
A: 0.22

Q: B4 was tested. Which ELISA (absorbance units) (absorbance units) did it give?
A: 0.147

Q: For B5, which ELISA (absorbance units) (absorbance units) is on record?
A: 0.277

Q: B6 was tested. Which ELISA (absorbance units) (absorbance units) did it give?
A: 0.114

Target: unrelated control antibody
Assay: phage ELISA, coated control mAb, 10^9 phagemid per well

Q: Which ELISA (absorbance units) (absorbance units) does the source give for B1 here?
A: 0.172

Q: How did the ELISA (absorbance units) (absorbance units) turn out when B2 was run?
A: 0.258

Q: Which ELISA (absorbance units) (absorbance units) does the source give for B3 here?
A: 0.204

Q: How did the ELISA (absorbance units) (absorbance units) turn out when B4 was run?
A: 0.136

Q: B5 was tested. Which ELISA (absorbance units) (absorbance units) did it give?
A: 0.199

Q: B6 was tested. Which ELISA (absorbance units) (absorbance units) did it give?
A: 0.118

Target: bovine serum albumin (bovine) (UniProt P02769)
Assay: phage ELISA, BSA only, 10^8 phagemid per well

Q: Which ELISA (absorbance units) (absorbance units) does the source give for B1 here?
A: 0.254

Q: Which ELISA (absorbance units) (absorbance units) does the source give for B2 here?
A: 0.268

Q: Which ELISA (absorbance units) (absorbance units) does the source give for B3 here?
A: 0.216

Q: B4 was tested. Which ELISA (absorbance units) (absorbance units) did it give?
A: 0.127

Q: With B5 as the binder, how does the ELISA (absorbance units) (absorbance units) read?
A: 0.264

Q: B6 was tested. Which ELISA (absorbance units) (absorbance units) did it give?
A: 0.109

Target: bovine serum albumin (bovine) (UniProt P02769)
Assay: phage ELISA, BSA only, 10^10 phagemid per well

Q: Which ELISA (absorbance units) (absorbance units) does the source give for B1 here?
A: 0.275

Q: Which ELISA (absorbance units) (absorbance units) does the source give for B2 here?
A: 0.304

Q: B3 was tested. Which ELISA (absorbance units) (absorbance units) did it give?
A: 0.221

Q: B4 was tested. Which ELISA (absorbance units) (absorbance units) did it give?
A: 0.141

Q: B5 was tested. Which ELISA (absorbance units) (absorbance units) did it give?
A: 0.327

Q: B6 was tested. Which ELISA (absorbance units) (absorbance units) did it give?
A: 0.112
